These results are taken from patent US10407662B2, “Method of culturing pluripotent stem cell, and polypeptide to be used therefor” (FUJIFILM Corporation, priority 2012, dated 2019).

Common to all, as to assay type: cell-based
Assay [1] has as its system human iPS cells. Kind of assay: Cell Adhesiveness Evaluation 2 (synthetic peptide inhibition of cell adhesion to natural vitronectin). As to conditions: 100 μM synthetic peptide. The protocol:
Polypeptides listed in Table 7 were synthesized by Emoc solid phase synthesis. A surface to which natural vitronectin was adsorbed at a concentration of 130 pmol/m^2, and thereafter, a cell suspension to which 100 μM of the above-described synthetic peptide was added was seeded at a rate of 30,000 cells/well. The number of adherent cells after 24 h post seeding was calculated by the same technique as in <Cell Adhesiveness Evaluation 1>.

Assay [2] has as its system human iPS cells. Kind of assay: Proliferation Evaluation of iPS cells on polypeptide-coated plate. As to conditions: for The Number (%) of Cells after 3 Days: 5000 cells/well. As for the experimental part: The iPS cells collected in the same manner as in <Cell Adhesiveness Evaluation 1>described above were seeded on a 96-well plate, to which RCP-1, RCP-11, and the natural human vitronectin were adsorbed, at a rate of 250 cells/well, and were cultured in a 5% CO2 incubator at 37° C. for 8 days. The number of adherent cells after each lapse of time was measured by the same method as in <Cell Adhesiveness Evaluation 1> described above, to obtain proliferation curves, The proliferation curves were indicated in FIG. 2. In FIG. 2, a black rhombus represents an example in which RCP-1 was used, while a black tetragon represents an example in which RCP-11 was used.
Similarly, each of samples from […] was prepared so as to have an addition concentration listed in Table 8 with each of from RCP-1 to RCP-10, and RCP-17, and Human Recombinant Laminin-511 as a reference, was seeded on a 96-well plate, to which each polypeptide was adsorbed, at a rate of 5000 cells/well in the same manner as in<Cell Adhesiveness Evaluation 1> described above, and was cultured in a CO2 incubator at 37° C. for 3 days. The number of cells after the 3 days was measured by the same method as in <Cell Adhesiveness Evaluation 1> described above.

Assay [3] concerns human iPS cells. Kind of assay: Evaluation of Maintenance of Undifferentiation (colony form, NANOG staining). As to conditions: for form of iPS cell colonies: FIG. 3, TESR2, subculture every six days; for NANOG expression (immunostaining): FIG. 4; for NANOG expression (immunostaining) / maintenance of undifferentiated state: cultured for 1 month. As for the experimental part: iPS cells collected in the same manner as in <Cell Adhesiveness Evaluation 1> described above were suspended in TESR2. Induced pluripotent stem cells (iPS cells) were seeded on a 6-well plate (Tissue Culture-Treated, Falcon) to which each of the sample 1, the sample 2, the sample 5, the sample 6, and the sample 7 used in <Cell Adhesiveness Evaluation 1> described above was adsorbed in the same manner as in <Cell Adhesiveness Evaluation 1>, and were cultured in a CO2 incubator at 37° C. The culture medium was replaced by a fresh culture medium every day except the next day after the seeding. Subculture was performed by the same method as mentioned above every six days.
The cells were cultured under these conditions for 1 month, thereafter immobilized with 4% paraformaldehyde, and made to have membrane permeability enhanced with 1% Triton-X/PBS. Blocking treatment was performed with an Image IT Signal Enhancer (Invitrogen), followed by adding an anti-human NANOG antibody (AF1997, R&D Systems, Inc), ALEXA FLUOR 555-CONJUGATE rabbit anti-goat IgG antibody (Invitrogen), and DAPI (Dojindo Laboratories), by performing labeling, and by photographing the cells with a fluorescence microscope.
In each of FIG. 3 and FIG. 4, “A”, “B”, “C” “D”, and “E” show iPS cells cultured on RCP-1, iPS cells cultured on RCP-11, iPS cells cultured on the natural human vitronectin, iPS cells cultured on rinaminin-5, and iPS cells cultured on rLaminin-511, respectively. Scale bar: 100 μm. In FIG. 3, overall colony images are shown in the left column, while magnified images are shown in the right column; and in FIG. 4, DAPI-stained images are shown in the left column while anti-NANOG antibody-stained images are shown in the right column. Scale bars in FIGS. 3 and 4: 200 μm.

For DKKCQCDELCSYYQSCCTDY [Peptide-4], the “inhibition of cell adhesion to natural vitronectin (in words)” value (“inhibition of cell adhesion” below) in the assay with human iPS cells [1] is given as “significantly inhibited”. TAECKPQVTRGDVFTMPEDE [Peptide-6]: the “inhibition of cell adhesion” value in the assay with human iPS cells [1] is recorded as “significantly inhibited”. In the case of “Laminin-511: recombinant laminin (Human Recombinant Laminin-511: Biolamina)”, the “The Number (%) of Cells after 3 Days” value with human iPS cells [2] (addition amount 1.28 μg/cm^2) is 56.8%. Regarding CCTDYTAECKPQVTRGEVFT [Peptide-7], the “inhibition of cell adhesion” value with human iPS cells [1] is “adhesion inhibition did not occur”. With KGRCTEGFNVDKKCQCDELC [Peptide-2], the “inhibition of cell adhesion” value in the assay with human iPS cells [1] was “adhesion inhibition did not occur”.

B1: RCP-3: recombinant polypeptide, Met + human vitronectin positions 1-55, 322-341, 342-373 (protein)
chain: MDQESCKGRCTEGFNVDKKCQCDELCSYYQSCCTDYTAECKPQVTRGDVFTMPEDEGVPGQVDAAMAGRIYISGMAPRPSLAKKQRFRHRNRKGYRSQRGHSRGRNQN
modifications: Synthetic Peptide RCP-3
For B1, in the assay on human iPS cells [2] (addition amount 20 μg/cm^2), the “The Number (%) of Cells after 3 Days” value was determined as 109.7%.

B2: RCP-4: recombinant polypeptide, Met + human vitronectin positions 1-55, 312-341, 342-373 (protein)
chain: MDQESCKGRCTEGFNVDKKCQCDELCSYYQSCCTDYTAECKPQVTRGDVFTMPEDEQPQFISRDWHGVPGQVDAAMAGRIYISGMAPRPSLAKKQRFRHRNRKGYRSQRGHSRGRNQN
modifications: Synthetic Peptide RCP-4
For B2, the “The Number (%) of Cells after 3 Days” value with human iPS cells [2] (addition amount 20 μg/cm^2) was 120.7%.

B3: RCP-17: recombinant polypeptide, Met + SEQ ID NO:38; vitronectin positions 1-55, 269-277, 295-341, 342-373, C274S (printed as RCP-11 in Table 2) (protein)
chain: MDQESCKGRCTEGFNVDKKCQCDELCSYYQSCCTDYTAECKPQVTRGDVFTMPEDESQEESEGSEDIFELLFWGRTSAGTRQPQFISRDWHGVPGQVDAAMAGRIYISGMAPRPSLAKKQRFRHRNRKGYRSQRGHSRGRNQN
modifications: Synthetic Peptide RCP-17
For the molecule B3, the “The Number (%) of Cells after 3 Days” value with human iPS cells [2] (addition amount 5 μg/cm^2) stood at 153.5%.

B4: RCP-2: recombinant polypeptide, Met + human vitronectin positions 1-55, 342-373 (protein)
chain: MDQESCKGRCTEGFNVDKKCQCDELCSYYQSCCTDYTAECKPQVTRGDVFTMPEDEPRPSLAKKQRFRHRNRKGYRSQRGHSRGRNQN
modifications: Synthetic Peptide RCP-2
For B4, the “The Number (%) of Cells after 3 Days” value with human iPS cells [2] (addition amount 20 μg/cm^2) stood at 81.7%.

B5: RCP-11: comparative recombinant polypeptide, GPLG + positions 1-459; corresponds to the sequence of natural human vitronectin (protein)
chain: GPLGDQESCKGRCTEGFNVDKKCQCDELCSYYQSCCTDYTAECKPQVTRGDVFTMPEDEYTVYDDGEEKNNATVHEQVGGPSLTSDLQAQSKGNPEQTPVLKPEEEAPAPEVGASKPEGIDSRPETLHPGRPQPPAEEELCSGKPFDAFTDLKNGSLFAFRGQYCYELDEKAVRPGYPKLIRDVWGIEGPIDAAFTRINCQGKTYLFKGSQYWRFEDGVLDPDYPRNISDGFDGIPDNVDAALALPAHSYSGRERVYFFKGKQYWEYQFQHQPSQEECEGSSLSAVFEHFAMMQRDSWEDIFELLFWGRTSAGTRQPQFISRDWHGVPGQVDAAMAGRIYISGMAPRPSLAKKQRFRHRNRKGYRSQRGHSRGRNQNSRRPSRATWLSLFSSEESNLGANNYDDYRMDWLVPATCEPIQSVFFFSGDKYYRVNLRTRRVDTVDPPYPRSIAQYWLGCPAPGHL
modifications: Synthetic Peptide CRP-11
With B5, the “number of cells smaller than that of RCP-1, as fraction of RCP-1” value with human iPS cells [2] (culture day 8, FIG. 2) is given as “around ⅓”. Moreover, in the assay with human iPS cells [3], the “form of iPS cell colonies” value was “homogeneous colony and a form characteristic for undifferentiated cells having a high nucleus occupying rate”; the “NANOG expression (immunostaining)” value is “strongly expressed NANOG in an overall colony”; the “maintenance of undifferentiated state” value was “undifferentiated state was favorably maintained”.

B6: RCP-5: recombinant polypeptide, Met + human vitronectin positions 1-55, 302-341, 342-373 (protein)
chain: MDQESCKGRCTEGFNVDKKCQCDELCSYYQSCCTDYTAECKPQVTRGDVFTMPEDEFWGRTSAGTRQPQFISRDWHGVPGQVDAAMAGRIYISGMAPRPSLAKKQRFRHRNRKGYRSQRGHSRGRNQN
modifications: Synthetic Peptide RCP-5
Consider B6, for which the “The Number (%) of Cells after 3 Days” value with human iPS cells [2] (addition amount 10 μg/cm^2) amounted to 121.2%.

B7: RCP-8: recombinant polypeptide, Met + human vitronectin positions 1-55, 269-373, 374-379, C274S (protein)
chain: MDQESCKGRCTEGFNVDKKCQCDELCSYYQSCCTDYTAECKPQVTRGDVFTMPEDESQEESEGSSLSAVFEHFAMMQRDSWEDIFELLFWGRTSAGTRQPQFISRDWHGVPGQVDAAMAGRIYISGMAPRPSLAKKQRFRHRNRKGYRSQRGHSRGRNQNSRRPSR
modifications: Synthetic Peptide RCP-8
notes: recombinant polypeptide, Met + human vitronectin positions 1-55, 269-373, 374-379, C274S
Take B7: in the assay on human iPS cells [2] (addition amount 5 μg/cm^2), the “The Number (%) of Cells after 3 Days” value is 171.0%.

B8: RCP-7: recombinant polypeptide, Met + human vitronectin positions 1-55, 269-373, C274S (protein)
chain: MDQESCKGRCTEGFNVDKKCQCDELCSYYQSCCTDYTAECKPQVTRGDVFTMPEDESQEESEGSSLSAVFEHFAMMQRDSWEDIFELLFWGRTSAGTRQPQFISRDWHGVPGQVDAAMAGRIYISGMAPRPSLAKKQRFRHRNRKGYRSQRGHSRGRNQN
modifications: Synthetic Peptide RCP-7
notes: recombinant polypeptide, Met + human vitronectin positions 1-55, 269-373, C274S
With B8, the “The Number (%) of Cells after 3 Days” value in the assay with human iPS cells [2] (addition amount 5 μg/cm^2) was determined as 89.9%.

B9: Natural vitronectin: human vitronectin (extracted from human plasma, BD Biosciences) (protein, listed as Homo sapiens)
chain: DQESCKGRCTEGFNVDKKCQCDELCSYYQSCCTDYTAECKPQVTRGDVFTMPEDEYTVYDDGEEKNNATVHEQVGGPSLTSDLQAQSKGNPEQTPVLKPEEEAPAPEVGASKPEGIDSRPETLHPGRPQPPAEEELCSGKPFDAFTDLKNGSLFAFRGQYCYELDEKAVRPGYPKLIRDVWGIEGPIDAAFTRINCQGKTYLFKGSQYWRFEDGVLDPDYPRNISDGFDGIPDNVDAALALPAHSYSGRERVYFFKGKQYWEYQFQHQPSQEECEGSSLSAVFEHFAMMQRDSWEDIFELLFWGRTSAGTRQPQFISRDWHGVPGQVDAAMAGRIYISGMAPRPSLAKKQRFRHRNRKGYRSQRGHSRGRNQNSRRPSRATWLSLFSSEESNLGANNYDDYRMDWLVPATCEPIQSVFFFSGDKYYRVNLRTRRVDTVDPPYPRSIAQYWLGCPAPGHL
modifications: glycosylated, plasma-derived
As to B9, in the assay on human iPS cells [3], the “form of iPS cell colonies” value is “homogeneous colony and a form characteristic for undifferentiated cells having a high nucleus occupying rate”; the “NANOG expression (immunostaining)” value is on record as “strongly expressed NANOG in an overall colony”; the “maintenance of undifferentiated state” value is recorded as “undifferentiated state was favorably maintained”.

B10: RCP-6: recombinant polypeptide, Met + human vitronectin positions 1-55, 269-459, C274S (protein)
chain: MDQESCKGRCTEGFNVDKKCQCDELCSYYQSCCTDYTAECKPQVTRGDVFTMPEDESQEESEGSSLSAVFEHFAMMQRDSWEDIFELLFWGRTSAGTRQPQFISRDWHGVPGQVDAAMAGRIYISGMAPRPSLAKKQRFRHRNRKGYRSQRGHSRGRNQNSRRPSRATWLSLFSSEESNLGANNYDDYRMDWLVPATSEPIQSVFFFSGDKYYRVNLRTRRVDTVDPPYPRSIAQYWLGSPAPGHL
modifications: Synthetic Peptide RCP-6
notes: recombinant polypeptide, Met + human vitronectin positions 1-55, 269-459, C274S
As to B10, the “The Number (%) of Cells after 3 Days” value in the assay on human iPS cells [2] (addition amount 20 μg/cm^2) stood at 70.5%.
